Experimental data: the supplement of paper PMC11246515
± gives the standard deviation of the averaged measurements.

Test: total protein half-life in vivo (active degradation + dilution); higher = more stable protein
[1] = E. coli NCM3722 delta-clpP delta-lon delta-hslV, growth: N-lim chemostat, doubling time 6 h
[2] = E. coli NCM3722 delta-clpP, growth: N-lim chemostat, doubling time 6 h
[3] = E. coli NCM3722 delta-hslV, growth: N-lim chemostat, doubling time 6 h
[4] = E. coli NCM3722 delta-lon, growth: N-lim chemostat, doubling time 6 h
[5] = E. coli NCM3722 delta-smpB, growth: N-lim chemostat, doubling time 6 h
[6] = wild type E. coli NCM3722, growth: C-lim chemostat, doubling time 3 h
[7] = wild type E. coli NCM3722, growth: C-lim chemostat, doubling time 6 h
[8] = wild type E. coli NCM3722, growth: C-lim chemostat, doubling time 12 h
[9] = wild type E. coli NCM3722, growth: N-lim chemostat, doubling time 6 h
[10] = wild type E. coli NCM3722, growth: N-lim chemostat, doubling time 12 h
[11] = wild type E. coli NCM3722, growth: P-lim chemostat, doubling time 6 h
[12] = wild type E. coli NCM3722, growth: P-lim chemostat, doubling time 12 h

| Sequence | total protein half-life in vivo [1] [h] | total protein half-life in vivo [2] [h] | total protein half-life in vivo [3] [h] | total protein half-life in vivo [4] [h] | total protein half-life in vivo [5] [h] | total protein half-life in vivo [6] [h] | total protein half-life in vivo [7] [h] | total protein half-life in vivo [8] [h] | total protein half-life in vivo [9] [h] | total protein half-life in vivo [10] [h] | total protein half-life in vivo [11] [h] | total protein half-life in vivo [12] [h] |
| --- | --- | --- | --- | --- | --- | --- | --- | --- | --- | --- | --- | --- |
| MKKTAIAIAVALAGFATVAQAAPKDNTWYTGAKLGWSQYHDTGFINNNGPTHENQLGAGAFGGYQVNPYVGFEMGYDWLGRMPYKGSVENGAYKAQGVQLTAKLGYPITDDLDIYTRLGGMVWRADTKSNVYGKNHDTGVSPVFAGGVEYAITPEIATRLEYQWTNNIGDAHTIGTRPDNGMLSLGVSYRFGQGEAAPVVAPAPAPAPEVQTKHFTLKSDVLFNFNKATLKPEGQAALDQLYSQLSNLDPKDGSVVVLGYTDRIGSDAYNQGLSERRAQSVVDYLISKGIPADKISARGMGESNPVTGNTCDNVKQRAALIDCLAPDRRVEIEVKGIKDVVTQPQA [P0A910] | 6.64 ± 0.48 | 6.96 ± 0.27 | 6.86 ± 0.49 | 7.032 ± 0.055 | 5.84 ± 0.27 | 3.41 ± 0.11 | 6.7 ± 0.097 | 13 ± 1.5 | 6.3 ± 0.41 | 13.6 ± 0.81 | 6.224 ± 0.024 | 15 ± 0.76 |
| MKKTLLAAGAVLALSSSFTVNAAENDKPQYLSDWWHQSVNVVGSYHTRFGPQIRNDTYLEYEAFAKKDWFDFYGYADAPVFFGGNSDAKGIWNHGSPLFMEIEPRFSIDKLTNTDLSFGPFKEWYFANNYIYDMGRNKDGRQSTWYMGLGTDIDTGLPMSLSMNVYAKYQWQNYGAANENEWDGYRFKIKYFVPITDLWGGQLSYIGFTNFDWGSDLGDDSGNAINGIKTRTNNSIASSHILALNYDHWHYSVVARYWHDGGQWNDDAELNFGNGNFNVRSTGWGGYLVVGYNF [P0A927] | – | > 8 | 6.33 ± 0.09 | > 8 | – | – | – | 14.1 ± 1 | 6.53 ± 0.7 | – | 6.08 ± 0.99 | – |
| MKKWAVIISAVGLAFAVSGCSSDYVMATKDGRMILTDGKPEIDDDTGLVSYHDQQGNAMQINRDDVSQIIER | 4.61 ± 0.25 | 5.4 | 4.24 ± 0.17 | 6.65 ± 0.55 | 3.25 ± 1.1 | 2.24 ± 0.32 | 4.63 ± 0.37 | 7.88 ± 0.34 | 4.76 ± 0.35 | 8.92 ± 2.6 | 3.68 ± 0.91 | – |
| MKKWSRHLLAAGALALGMSAAHADDNNTLYFYNWTEYVPPGLLEQFTKETGIKVIYSTYESNETMYAKLKTYKDGAYDLVVPSTYYVDKMRKEGMIQKIDKSKLTNFSNLDPDMLNKPFDPNNDYSIPYIWGATAIGVNGDAVDPKSVTSWADLWKPEYKGSLLLTDDAREVFQMALRKLGYSGNTTDPKEIEAAYNELKKLMPNVAAFNSDNPANPYMEGEVNLGMIWNGSAFVARQAGTPIDVVWPKEGGIFWMDSLAIPANAKNKEGALKLINFLLRPDVAKQVAETIGYPTPNLAARKLLSPEVANDKTLYPDAETIKNGEWQNDVGAASSIYEEYYQKLKAGR [P0AFK9] | – | 5.36 ± 0.48 | 6.46 ± 0.61 | 6.271 ± 0.061 | 5.94 ± 0.35 | 3.44 ± 0.58 | 6.44 ± 0.57 | 13.6 ± 0.72 | 6.07 ± 0.22 | 11.99 ± 0.032 | 5.59 ± 0.35 | 12.5 ± 0.19 |
| MKKYLALALIAPLLISCSTTKKGDTYNEAWVKDTNGFDILMGQFAHNIENIWGFKEVVIAGPKDYVKYTDQYQTRSHINFDDGTITIETIAGTEPAAHLRRAIIKTLLMGDDPSSVDLYSDVDDITISKEPFLYGQVVDNTGQPIRWEGRASNFADYLLKNRLKSRSNGLRIIYSVTINMVPNHLDKRAHKYLGMVRQASRKYGVDESLILAIMQTESSFNPYAVSRSDALGLMQVVQHTAGKDVFRSQGKSGTPSRSFLFDPASNIDTGTAYLAMLNNVYLGGIDNPTSRRYAVITAYNGGAGSVLRVFSNDKIQAANIINTMTPGDVYQTLTTRHPSAESRRYLYKVNTAQKSYRRR [P0C066] | 6.29 ± 0.53 | – | 6.24 ± 0.8 | – | 4.92 ± 0.2 | 3.27 ± 0.4 | 5.3 ± 0.52 | 9.66 ± 1.5 | 6.34 ± 0.94 | 12.6 ± 2.2 | 7.12 | – |
| MKLAACFLTLLPGFAVAASWTSPGFPAFSEQGTGTFVSHAQLPKGTRPLTLNFDQQCWQPADAIKLNQMLSLQPCSNTPPQWRLFRDGEYTLQIDTRSGTPTLMISIQNAAEPVASLVRECPKWDGLPLTVDVSATFPEGAAVRDYYSQQIAIVKNGQIMLQPAATSNGLLLLERAETDTSAPFDWHNATVYFVLTDRFENGDPSNDQSYGRHKDGMAEIGTFHGGDLRGLTNKLDYLQQLGVNALWISAPFEQIHGWVGGGTKGDFPHYAYHGYYTQDWTNLDANMGNEADLRTLVDSAHQRGIRILFDVVMNHTGYATLADMQEYQFGALYLSGDEVKKSLGERWSDWKPAAGQTWHSFNDYINFSDKTGWDKWWGKNWIRTDIGDYDNPGFDDLTMSLAFLPDIKTESTTASGLPVFYKNKMDTHAKAIDGYTPRDYLTHWLSQWVRDYGIDGFRVDTAKHVELPAWQQLKTEASAALREWKKANPDKALDDKPFWMTGEAWGHGVMQSDYYRHGFDAMINFDYQEQAAKAVDCLAQMDTTWQQMAEKLQGFNVLSYLSSHDTRLFREGGDKAAELLLLAPGAVQIFYGDESSRPFGPTGSDPLQGTRSDMNWQDVSGKSAASVAHWQKISQFRARHPAIGAGKQTTLLLKQGYGFVREHGDDKVLVVWAGQQ | 4.78 ± 0.17 | 7.23 ± 0.88 | 4.97 | 7.45 | 5.36 ± 0.33 | 3.262 ± 0.0075 | 6.26 ± 0.66 | – | 5.75 | 9.72 | 7.07 | 9.37 ± 2.8 |
| MKLFAQGTSLDLSHPHVMGILNVTPDSFSDGGTHNSLIDAVKHANLMINAGATIIDVGGESTRPGAAEVSVEEELQRVIPVVEAIAQRFEVWISVDTSKPEVIRESAKVGAHIINDIRSLSEPGALEAAAETGLPVCLMHMQGNPKTMQEAPKYDDVFAEVNRYFIEQIARCEQAGIAKEKLLLDPGFGFGKNLSHNYSLLARLAEFHHFNLPLLVGMSRKSMIGQLLNVGPSERLSGSLACAVIAAMQGAHIIRVHDVKETVEAMRVVEATLSAKENKRYE [P0AC13] | 4.15 ± 0.55 | 3.78 ± 0.098 | 4.96 ± 1.8 | 4.16 ± 0.19 | 3.72 ± 0.14 | 2.881 ± 0.016 | 4.48 ± 0.86 | – | 3.94 ± 0.15 | 6.23 ± 0.25 | 5.63 ± 0.14 | 11.3 ± 0.29 |
